To fix the notation:
B1: cytosolic tail (CT) of integrin β2 (residues K724-S769) (domain or fragment, UniProt P05107 724-769, looked up)
chain: KALIHLSDLREYRRFEKEKLKSQWNNDNPLFKSATTTVMNPKFAES
notes: integrin β2 (CD18) cytosolic tail, residues K724-S769; Used 15N-labelled in one direction of the titration and unlabelled in the other; also called β2 CT; CT of β2; source: E. coli BL21DE3, KSI fusion in inclusion bodies, purified (Ni-NTA in 8 M urea, cyanogen bromide cleavage, HPLC); not shown: ketosteroid isomerase (KSI), N-terminal, cleaved
B2: cytosolic tail (CT) of integrin αX (residues K1129-K1163) (domain or fragment, UniProt P20702 1129-1163, looked up)
chain: KVGFFKRQYKEMMEEANGQIAPENGTQTPSPPSEK
notes: integrin αX (CD11c) cytosolic tail, residues K1129-K1163, 35 residues; Used 15N-labelled in one direction of the titration and unlabelled in the other; A GGGGSDP linker lay between KSI and the tail, and formic acid cleaves at the Asp-Pro site, so a Pro may remain at the N-terminus (surmised); The myristoylated synthetic αX CT (GL Biochem) was used only for the structure in DPC micelles, not for …

Assay [1] deals with B2. Description: NMR titration; 15N-1H HSQC; 15N-labelled CT titrated with the unlabelled cognate CT up to two times its concentration (1:2); 10 mM sodium phosphate buffer, pH 6.5, aqueous solution; done in both directions. Particulars: both partners purified.
In assay [2] the target is B1. The description is as above. Particulars: both partners purified.

Regarding B1, the binding result in assay [1] was “binds”.

As to B2, the binding result in assay [2] is “binds”.

These data come from article PMC3406025, “Structure and Binding Interface of the Cytosolic Tails of αXβ2 Integrin” (PLoS ONE, 2012).
